This experiment concerns the target recombinant PR1/HLA-A*0201 monomer (human). The experiment in a line: SPR (Biacore), antibody captured, peptide/HLA-A2 as analyte. A general note: In SPR one partner is held on a chip, and binding of the other changes the refractive index at the surface.

Consider “BB7.2 murine monoclonal antibody (HLA-A*0201 allele-specific mouse IgG2a)”, for which the Kd (commonly the free concentration of one partner at which half of the binding sites on the other are occupied at equilibrium, for simple one-to-one binding) came to 0.162 µM.
